Results as given in patent US20240100133.

System: Granzyme A wild type, recombinant human, His-tagged (GzmA-WT)
Sequence (chain, as listed by the source): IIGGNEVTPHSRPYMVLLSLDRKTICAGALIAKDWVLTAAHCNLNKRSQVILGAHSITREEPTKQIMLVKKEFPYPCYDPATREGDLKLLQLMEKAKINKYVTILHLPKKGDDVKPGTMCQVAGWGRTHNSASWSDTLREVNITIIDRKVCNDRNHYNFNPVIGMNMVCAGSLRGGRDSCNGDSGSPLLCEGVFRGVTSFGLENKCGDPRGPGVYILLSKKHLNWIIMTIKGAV

Sequence of human recombinant PDIA1 (Protein Disulfide Isomerase A1, residues 18-479, N-terminal His-tag) (chain, as listed by the source): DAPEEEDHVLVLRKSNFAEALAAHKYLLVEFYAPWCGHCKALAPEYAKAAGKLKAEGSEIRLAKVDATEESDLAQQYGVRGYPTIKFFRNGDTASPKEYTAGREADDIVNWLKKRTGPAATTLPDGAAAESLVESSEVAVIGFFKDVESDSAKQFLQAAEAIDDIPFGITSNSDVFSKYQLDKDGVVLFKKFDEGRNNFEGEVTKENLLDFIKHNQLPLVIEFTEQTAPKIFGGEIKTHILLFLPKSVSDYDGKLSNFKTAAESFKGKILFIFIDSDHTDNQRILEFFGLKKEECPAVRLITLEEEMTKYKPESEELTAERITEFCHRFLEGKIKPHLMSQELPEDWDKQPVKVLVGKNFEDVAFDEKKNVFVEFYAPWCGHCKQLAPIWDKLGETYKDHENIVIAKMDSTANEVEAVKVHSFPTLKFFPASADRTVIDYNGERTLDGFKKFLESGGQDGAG

Question: “human recombinant PDIA1 (Protein Disulfide Isomerase A1, residues 18-479, N-terminal His-tag)” was tested. Which “conversion of GzmA homodimer into the 27 kDa monomer (silver stain and anti-GzmA western blot)” value did it give?
Answer: they incubated GzmA-WT with PDIA1 and observed the monomeric band at 27 KDa, which was not present when heat-inactivated PDIA1 was used
